In paper PMC5951830, “CO2-sensitive tRNA modification associated with human mitochondrial disease” (Nature Communications, 2018):

Columns and labels:
purified protein [1] = substrate: Nc1ncnc2c1ncn2[C@@H]1O[C@H](COP(=O)(O)OP(=O)(O)OP(=O)(O)O)[C@@H](O)[C@H]1O; assay: purified protein; type: biochemical, Homo sapiens; conditions: YRDC alone, Tricine-NaOH pH 8.5, 10 mM MgCl2, [14C]L-Thr, NaHCO3, 37 °C, ATP 0.1-0.8 mM
purified protein [2] = substrate: O=C(O)O; assay: purified protein; conditions: YRDC alone, Tricine-NaOH pH 8.5, 10 mM MgCl2, ATP, L-Thr, 37 °C, bicarbonate 10-80 mM

B1: YRDC (Homo sapiens) (protein)
chain: SVGLSEGPAGSRSGRLFRPPSPAPAAPGARLLRLPGSGAVQAASPERAGWTEALRAAVAELRAGAVVAVPTDTLYGLACAASCSAALRAVYRLKGRSEAKPLAVCLGRVADVYRYCRVRVPEGLLKDLLPGPVTLVMERSEELNKDLNPFTPLVGIRIPDHAFMQDLAQMFEGPLALTSANLSSQASSLNVEEFQDLWPQLSLVIDGGQIGDGQSPECRLGSTVVDLSVPGKFGIIRPGCALESTTAILQQKYGLLPSHASYL
notes: recombinant from E. coli Rosetta(DE3), His6-SUMO tag removed
With B1 the Km (purified protein [1]) was 0.17 ± 0.22 mM, the kcat (purified protein [1]) was “(3.9 ± 2.23) × 10^-2 s^-1” and the Km (purified protein [2]) was 13 mM.
